In doi:10.1101/639963:

Key:
[1] = biological target: Myosin VI N-terminal tail fragment, large-insert isoform (NMVI_(TAIL(LI))); test: FRET or BRET
[2] = biological target: Myosin VI N-terminal tail fragment, non-insert isoform (NMVI_(TAIL(NI))); test: FRET or BRET
[3] = biological target: nuclear dot protein 52 (NDP52/CALCOCO2) (UniProt Q13137); test: FRET or BRET
[4] = biological target: Myosin VI tail, large-insert isoform (MVI_(TAIL(LI))); test: FRET or BRET
[5] = biological target: Dab2 C-terminal region (residues 649-770) (UniProt P98082); test: FRET or BRET
[6] = biological target: Myosin VI tail, non-insert isoform (MVI_(TAIL(NI)), aa 814-1253); test: FRET or BRET
[7] = biological target: T1, Dab2 C-terminal region (myosin VI binding site) (Homo sapiens, UniProt P98082 649-770); test: fluorescence anisotropy
T1 sequence: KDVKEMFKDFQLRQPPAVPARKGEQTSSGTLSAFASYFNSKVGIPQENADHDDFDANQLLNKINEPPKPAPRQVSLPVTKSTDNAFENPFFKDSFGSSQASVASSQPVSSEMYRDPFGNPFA

[8] = biological target: Myosin VI CBD (cargo-binding domain; non-insert isoform) (Homo sapiens, UniProt Q9UM54-5 1060-1253); test: fluorescence anisotropy

nuclear dot protein 52 (NDP52/CALCOCO2), sequence (Q13137 whole entry, canonical isoform): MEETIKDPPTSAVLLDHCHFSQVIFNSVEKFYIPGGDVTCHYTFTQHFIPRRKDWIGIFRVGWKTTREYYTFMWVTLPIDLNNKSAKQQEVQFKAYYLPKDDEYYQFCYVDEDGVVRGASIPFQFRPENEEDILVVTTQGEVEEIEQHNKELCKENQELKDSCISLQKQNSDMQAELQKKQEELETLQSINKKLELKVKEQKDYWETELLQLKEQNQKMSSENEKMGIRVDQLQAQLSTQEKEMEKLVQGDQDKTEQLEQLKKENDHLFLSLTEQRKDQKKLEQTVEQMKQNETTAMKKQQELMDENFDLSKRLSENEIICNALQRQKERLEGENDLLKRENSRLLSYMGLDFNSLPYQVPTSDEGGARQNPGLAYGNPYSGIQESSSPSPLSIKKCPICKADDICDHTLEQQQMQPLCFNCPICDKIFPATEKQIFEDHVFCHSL

For “Myosin VI C-terminal globular cargo binding domain (CBD) (domain or fragment)”, which Kd with 10 μM Dab2 [1] is on record?
The Kd with 10 μM Dab2 was 6 µM.

What about the Kd with 10 μM NDP52 [2] of the same molecule?
Its Kd with 10 μM NDP52 is 4.1 µM.

What does the source list for “Myosin VI tail, large-insert isoform (MVI_(TAIL(LI))) (domain or fragment)”?
Kd [3]: 17.3 µM; Kd^DIMER with 20 μM Dab2 [4]: 3.3 µM; Kd^DIMER with 20 μM NDP52 [4]: 9.3 µM; Kd [5]: 3.5 µM

How did the Kd [3] turn out when “Myosin VI tail, non-insert isoform (MVI_(TAIL(NI)), aa 814-1253) (domain or fragment)” was run?
Its Kd is 2.1 µM.

What about the Kd [5] of the same molecule?
Its Kd is 11.6 µM.

And the Kd^DIMER with 20 μM Dab2 [6]?
Its Kd^DIMER with 20 μM Dab2 is 5.3 µM.

What about the Kd^DIMER with 20 μM NDP52 [6] of the same molecule?
The Kd^DIMER with 20 μM NDP52 was 4.3 µM.

B1: ds40 FAM-DNA (40 bp) (dsDNA)
DNA 1: TTAGTTGTTCGTAGTGCTCGTCTGGCTCTGGATTACCCGC
DNA 2: GCGGGTAATCCAGAGCCAGACGAGCACTACGAACAACTAA
Does B1 bind [7]?
Result: no binding

And the Kd [8]?
Its Kd is 0.14 µM.
